Measured values published in patent US20230117831.

Columns and labels:
BRD4 peptide S325 = biological target: T1, BRD4 peptide S325
T1 chain: GQRRESSRPVKPPRR

[1] = biological target: BRD4-GST (BD1 and BD2 (49-460)) (BPS Bioscience 31044), O60885
BRD4 peptide S338 = biological target: T2, BRD4 peptide S338
T2 chain: KKDVPDSQQHPAPRR

BRD4 peptide S358 = biological target: T3, BRD4 peptide S358
T3 chain: EQLKCCSGILKEMRR

BRD4 peptide T169 = biological target: T4, BRD4 peptide T169
T4 chain: ELPTEETEIMIVQRR

B1: AMPK α1β1γ1-His tag (SignalChem P47-10H) (protein)
chain 1: MRRLSSWRKMATAEKQKHDGRVKIGHYILGDTLGVGTFGKVKVGKHELTGHKVAVKILNRQKIRSLDVVGKIRREIQNLKLFRHPHIIKLYQVISTPSDIFMVMEYVSGGELFDYICKNGRLDEKESRRLFQQILSGVDYCHRHMVVHRDLKPENVLLDAHMNAKIADFGLSNMMSDGEFLRTSCGSPNYAAPEVISGRLYAGPEVDIWSSGVILYALLCGTLPFDDDHVPTLFKKICDGIFYTPQYLNPSVISLLKHMLQVDPMKRATIKDIREHEWFKQDLPKYLFPEDPSYSSTMIDDEALKEVCEKFECSEEEVLSCLYNRNHQDPLAVAYHLIIDNRRIMNEAKDFYLATSPPDSFLDDHHLTRPHPERVPFLVAETPRARHTLDELNPQKSKHQGVRKAKWHLGIRSQSRPNDIMAEVCRAIKQLDYEWKVVNPYYLRVRRKNPVTSTYSKMSLQLYQVDSRTYLLDFRSIDDEITEAKSGTATPQRSGSVSNYRSCQRSDSDAEAQGKSSEVSLTSSVTSLDSSPVDLTPRPGSHTIEFFEMCANLIKILAQ
chain 2: MGNTSSERAALERHGGHKTPRRDSSGGTKDGDRPKILMDSPEDADLFHSEEIKAPEKEEFLAWQHDLEVNDKAPAQARPTVFRWTGGGKEVYLSGSFNNWSKLPLTRSHNNFVAILDLPEGEHQYKFFVDGQWTHDPSEPIVTSQLGTVNNIIQVKKTDFEVFDALMVDSQKCSDVSELSSSPPGPYHQEPYVCKPEERFRAPPILPPHLLQVILNKDTGISCDPALLPEPNHVMLNHLYALSIKDGVMVLSATHRYKKKYVTTLLYKPI
chain 3: METVISSDSSPAVENEHPQETPESNNSVYTSFMKSHRCYDLIPTSSKLVVFDTSLQVKKAFFALVTNGVRAAPLWDSKKQSFVGMLTITDFINILHRYYKSALVQIYELEEHKIETWREVYLQDSFKPLVCISPNASLFDAVSSLIRNKIHRLPVIDPESGNTLYILTHKRILKFLKLFITEFPKPEFMSKSLEELQIGTYANIAMVRTTTPVYVALGIFVQHRVSALPVVDEKGRVVDIYSKFDVINLAAEKTYNNLDVSVTKALQHRSHYFEGVLKCYLHETLETIINRLVEAEVHRLVVVDENDVVKGIVSLSDILQALVLTGGEKKP
Q: Which “ADP-Glo assay, phosphorylation of the peptide by AMPK compared with the SAMS peptide” value (shortened to “ADP-Glo assay … compared with the SAMS peptide”) (BRD4 peptide S325) does the source give for B1 here?
A: these peptides showed a 250-fold lower preference for phosphorylation than AMPK's natural ACC substrate-SAMS peptide

Q: And the “BRD4 phosphorylation, western blot with phospho-AMPK substrate motif antibody” value [1]?
A: Applicants observed BRD4 phosphorylation only when PHICS, BRD4, and kinase were present

Q: What about the “ADP-Glo assay … compared with the SAMS peptide” value (BRD4 peptide S338) of the same protein?
A: these peptides showed a 250-fold lower preference for phosphorylation than AMPK's natural ACC substrate-SAMS peptide

Q: And the “ADP-Glo assay … compared with the SAMS peptide” value (BRD4 peptide S358)?
A: these peptides showed a 250-fold lower preference for phosphorylation than AMPK's natural ACC substrate-SAMS peptide

Q: And the “ADP-Glo assay … compared with the SAMS peptide” value (BRD4 peptide T169)?
A: these peptides showed a 250-fold lower preference for phosphorylation than AMPK's natural ACC substrate-SAMS peptide
